Experimental findings from the supplement of paper PMC10567573 are described below.

B1: FCHSD1 (parent)
chain: LEAAEVILEHAHRGEQTTSQVSWE
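Further: lentivirally expressed fusions sorted by FACS into six bins by GFP to DsRed ratio, PSI derived from sequencing read proportions per bin multiplied by bin number.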

The variants in this series derive from B1. Description: protein stability index of a GFP-peptide fusion (GPS, HEK-293T) (PSI 1-6); higher = more stable. The note with it: c terminus: a fixed tail appended.
Turning to LEAAEVILLHAHRGEQTTSQVSWE [E9L], the protein stability index is 2.52.
Turning to LEAAEVILFHAHRGEQTTSQVSWE [E9F], the protein stability index came out at 2.54.
Under LEAAEVILYHAHRGEQTTSQVSWE [E9Y] stands 2.33; under LEAAEVILSHAHRGEQTTSQVSWE [E9S], 4.4.
On to LEAAEVILKHAHRGEQTTSQVSWE [E9K], for which the protein stability index turned out to be 4.19.
Under LEAAEVILNHAHRGEQTTSQVSWE [E9N] stands 3.8; under LEAAEVILTHAHRGEQTTSQVSWE [E9T], 3.62; under LEAAEVILVHAHRGEQTTSQVSWE [E9V], 2.5.
The same measure for LEAAEVILWHAHRGEQTTSQVSWE [E9W]: 2.05.
Under LEAAEVILMHAHRGEQTTSQVSWE [E9M] stands 2.66; under LEAAEVILRHAHRGEQTTSQVSWE [E9R], 3.39.
Turning to LEAAEVILIHAHRGEQTTSQVSWE [E9I], the protein stability index is 1.86.
Under LEAAEVILGHAHRGEQTTSQVSWE [E9G] stands 3.87; under LEAAEVILHHAHRGEQTTSQVSWE [E9H], 4.18.
The same measure for LEAAEVILCHAHRGEQTTSQVSWE [E9C]: 3.04.
Under LEAAEVILQHAHRGEQTTSQVSWE [E9Q] stands 3.45; under LEAAEVILDHAHRGEQTTSQVSWE [E9D], 4.33; under LEAAEVILELAHRGEQTTSQVSWE [H10L], 4.34.
With LEAAEVILEIAHRGEQTTSQVSWE [H10I], the protein stability index is 2.88.
Under LEAAEVILEEAHRGEQTTSQVSWE [H10E] stands 5.19.
Under LEAAEVILEMAHRGEQTTSQVSWE [H10M] stands 3.15; under LEAAEVILEKAHRGEQTTSQVSWE [H10K], 4.48.
Under LEAAEVILEYAHRGEQTTSQVSWE [H10Y] stands 3.15; under LEAAEVILEFAHRGEQTTSQVSWE [H10F], 3.05.
On to LEAAEVILESAHRGEQTTSQVSWE [H10S], for which the protein stability index was 4.41.
The same measure for LEAAEVILENAHRGEQTTSQVSWE [H10N]: 3.78; for LEAAEVILETAHRGEQTTSQVSWE [H10T]: 4.65.
The same measure for LEAAEVILEPAHRGEQTTSQVSWE [H10P]: 4.41; for LEAAEVILEQAHRGEQTTSQVSWE [H10Q]: 4.88; for LEAAEVILEGAHRGEQTTSQVSWE [H10G]: 3.87.
The same measure for LEAAEVILEVAHRGEQTTSQVSWE [H10V]: 3.92.
LEAAEVILECAHRGEQTTSQVSWE [H10C]: the protein stability index is 3.63.
Under LEAAEVGLEHAHRGEQTTSQVSWE [I7G] stands 5.1; under LEAAEVNLEHAHRGEQTTSQVSWE [I7N], 5.08.
As to LEAAEVALEHAHRGEQTTSQVSWE [I7A], the protein stability index was 4.71.
Under LEAAEVQLEHAHRGEQTTSQVSWE [I7Q] stands 4.55; under LEAAEVSLEHAHRGEQTTSQVSWE [I7S], 4.92.
Regarding LEAAEVHLEHAHRGEQTTSQVSWE [I7H], the protein stability index turned out to be 5.15.
The same measure for LEAAEVRLEHAHRGEQTTSQVSWE [I7R]: 5.16; for LEAAEVMLEHAHRGEQTTSQVSWE [I7M]: 4.84.
Under LEAAEVYLEHAHRGEQTTSQVSWE [I7Y] stands 4.7; under LEAAEVELEHAHRGEQTTSQVSWE [I7E], 4.64.
The same measure for LEAAEVWLEHAHRGEQTTSQVSWE [I7W]: 4.24; for LEAAEVVLEHAHRGEQTTSQVSWE [I7V]: 4.75.
For the variant LEAAEVPLEHAHRGEQTTSQVSWE [I7P], the protein stability index is 4.89.
The same measure for LEAAEVLLEHAHRGEQTTSQVSWE [I7L]: 4.99.
Consider LEAAEVFLEHAHRGEQTTSQVSWE [I7F], for which the protein stability index was found to be 4.27.
As for LEAAEVCLEHAHRGEQTTSQVSWE [I7C], the protein stability index stood at 4.28.
Turning to LEAAEVDLEHAHRGEQTTSQVSWE [I7D], the protein stability index was found to be 5.62.
As to LEAAEVIWEHAHRGEQTTSQVSWE [L8W], the protein stability index was 4.31.
The same measure for LEAAEVIVEHAHRGEQTTSQVSWE [L8V]: 4.83; for LEAAEVICEHAHRGEQTTSQVSWE [L8C]: 4.93.
Under LEAAEVIAEHAHRGEQTTSQVSWE [L8A] stands 4.96; under LEAAEVISEHAHRGEQTTSQVSWE [L8S], 5.37; under LEAAEVIYEHAHRGEQTTSQVSWE [L8Y], 4.42.
The same measure for LEAAEVIIEHAHRGEQTTSQVSWE [L8I]: 4.46.
On to LEAAEVIPEHAHRGEQTTSQVSWE [L8P], for which the protein stability index is 5.65.
The same measure for LEAAEVITEHAHRGEQTTSQVSWE [L8T]: 5.09; for LEAAEVIKEHAHRGEQTTSQVSWE [L8K]: 4.98; for LEAAEVIQEHAHRGEQTTSQVSWE [L8Q]: 5.5.
The same measure for LEAAEVIMEHAHRGEQTTSQVSWE [L8M]: 4.46.
The same measure for LEAAEVIHEHAHRGEQTTSQVSWE [L8H]: 4.74; for LEAAEVIFEHAHRGEQTTSQVSWE [L8F]: 4.
For the variant LEAAEVIGEHAHRGEQTTSQVSWE [L8G], the protein stability index stood at 5.23.
Take LEAAEVIEEHAHRGEQTTSQVSWE [L8E]: the protein stability index came out at 5.09.
Turning to LEAAEVIREHAHRGEQTTSQVSWE [L8R], the protein stability index worked out at 4.92.
The same measure for LEAAEVIDEHAHRGEQTTSQVSWE [L8D]: 5.35.
The same measure for LEAAEVILEHCHRGEQTTSQVSWE [A11C]: 4.14; for LEAAEVILEHEHRGEQTTSQVSWE [A11E]: 4.69; for LEAAEVILEHGHRGEQTTSQVSWE [A11G]: 4.14.
Under LEAAEVILEHDHRGEQTTSQVSWE [A11D] stands 4.97; under LEAAEVILEHFHRGEQTTSQVSWE [A11F], 3.27.
Turning to LEAAEVILEHHHRGEQTTSQVSWE [A11H], the protein stability index worked out at 4.05.
The same measure for LEAATVILEHAHRGEQTTSQVSWE [E5T]: 4.38.
Regarding LEAASVILEHAHRGEQTTSQVSWE [E5S], the protein stability index was determined as 4.1.
The same measure for LEAAVVILEHAHRGEQTTSQVSWE [E5V]: 2.83; for LEAAWVILEHAHRGEQTTSQVSWE [E5W]: 1.53.
Under LEAAYVILEHAHRGEQTTSQVSWE [E5Y] stands 2.01; under LEAAEHILEHAHRGEQTTSQVSWE [V6H], 4.7.
Under LEAAEEILEHAHRGEQTTSQVSWE [V6E] stands 5.31; under LEAAEAILEHAHRGEQTTSQVSWE [V6A], 4.9; under LEAAESILEHAHRGEQTTSQVSWE [V6S], 4.24.
Consider LEAAEDILEHAHRGEQTTSQVSWE [V6D], for which the protein stability index amounted to 5.52.
Under LEAAEIILEHAHRGEQTTSQVSWE [V6I] stands 4.03.
The same measure for LEAAEMILEHAHRGEQTTSQVSWE [V6M]: 3.85.
The same measure for LEAAEYILEHAHRGEQTTSQVSWE [V6Y]: 4.17; for LEAAEKILEHAHRGEQTTSQVSWE [V6K]: 4.16; for LEAAEGILEHAHRGEQTTSQVSWE [V6G]: 5.35.
In the case of LEAAERILEHAHRGEQTTSQVSWE [V6R], the protein stability index worked out at 4.48.
The same measure for LEAAEFILEHAHRGEQTTSQVSWE [V6F]: 3.56; for LEAAEPILEHAHRGEQTTSQVSWE [V6P]: 5.66; for LEAAENILEHAHRGEQTTSQVSWE [V6N]: 5.66.
The same measure for LEAAEQILEHAHRGEQTTSQVSWE [V6Q]: 5.27.
As for LEAAELILEHAHRGEQTTSQVSWE [V6L], the protein stability index was determined as 3.95.
